# Reference: patent US20040038205A1
# Molecular target: natural cellular receptor for the adenoviral fiber on 293 cells (human (293 human line)) (UniProt P78310)
# Test: cell-based or functional assay
# Sequence of UniProt P78310 (P78310 20-365): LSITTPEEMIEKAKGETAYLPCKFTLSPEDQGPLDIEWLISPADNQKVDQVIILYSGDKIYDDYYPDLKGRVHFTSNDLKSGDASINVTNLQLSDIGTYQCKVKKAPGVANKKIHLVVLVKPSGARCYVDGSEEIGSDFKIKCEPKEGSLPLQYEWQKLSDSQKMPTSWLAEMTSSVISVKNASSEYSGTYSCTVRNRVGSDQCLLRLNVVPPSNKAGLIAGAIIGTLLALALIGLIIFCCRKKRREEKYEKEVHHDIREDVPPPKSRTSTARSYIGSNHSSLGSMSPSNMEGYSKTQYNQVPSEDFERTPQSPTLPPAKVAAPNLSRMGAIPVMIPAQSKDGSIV
substance,measurement,value
native Ad5 fiber carried by the recombinant virus AdLacZ (from UniProt P11818 1-581),degree of inhibition of infection of 293 cells with AdLacZ by recombinant Ad5 knob at 100 µg/ml (LacZ-positive cells),95%
